Laboratory results taken from patent US12649778.
Where two headings read alike, the source gives them in different places.

Legend:
[1] = target: monoclonal antibody 65D3-1
[2] = target: Peptide 1593 (…) (Mycobacterium tuberculosis); experiment: indirect ELISA, supernatant on 1 ug/ml coated peptide
[3] = target: Peptide 1593 (…) (Mycobacterium tuberculosis); experiment: SPR (Biacore 8K), antibody amine-coupled to CM5, peptide as analyte, 25 C
[4] = target: Peptide 1593 (…) (Mycobacterium tuberculosis); experiment: SPR (Biacore 8K), antibody immobilised, peptide as analyte
[5] = target: Peptide 1593 (…) (Mycobacterium tuberculosis)
[6] = target: Peptide 1593 (…) (Mycobacterium tuberculosis); experiment: SPR (Biacore), IgG amine-coupled, peptide as analyte
[7] = target: Peptide 2004 (…) (Mycobacterium tuberculosis)
[8] = target: Peptide 1593 (…) (Mycobacterium tuberculosis); experiment: indirect ELISA, recombinant antibody on 1 ug/ml coated peptide
[9] = target: Peptide 1593 (…) (Mycobacterium tuberculosis); remark: listed apart in the source

| Binder | OD450, supernatant 1:90 [2] | OD450, supernatant 1:270 [2] | OD450, supernatant 1:810 [2] | OD450, supernatant 1:2,430 [2] | OD450, supernatant undiluted [2] | Titer [2] | rank by relative ELISA signal across the dilution series (1 = highest) [7] | other results |
| --- | --- | --- | --- | --- | --- | --- | --- | --- |
| TDAATLAQEAGNFERC (modifications not checked) [Peptide 1593 (…)] |  |  |  |  |  |  |  | IC50 (read off the curve) [1]: 2 nM |
| Antibody 91B4-1 (antibody, V domains shown) VH: QSLEESGGRLVSPGGSLTLTCTVSGIDLSRFGVSWVRQAPGKGLEWTGYIHTDGNVYYASWAKGRFTISKTSTTVDLKMTSLTTEDTATYFCARGGYAADLWGQAALVTVSS VL: DPMLTQTPSSVSAAVGGTVTISCQSSESVYKNYLAWYQQKLGQPPKLLIGATSTLVSGVPSRFKGSGSRTQFSLTISDLECDDAATYYCVGGYTGKNVFGGGTEVVVK | 3.04 OD450 | 2.27 OD450 | 1.3 OD450 | 0.618 OD450 | 3.12 OD450 | > 2430 dilution 1:x |  |  |
| monoclonal antibody 65D3-1 (antibody, V domains shown) VH: QSLEESGGRLVTPGGSLTLTCTVSGFSLSTHDISWVRQAPGKGLEWIGVIARRGSTYYASWAKGRFTISKTSTTVDLKITSPTIEDTATYFCAREEFDFWGQGTLVTVSS VL: AVLTQTASPVSAAVGGTVTISCQSSQSVYNNKELSWFQQKPGQPPKLLISYASTLASGVPSRFKGSGSGTQFTLTISDLECDDAATYYCLGGYASTIDMWAFGGGTEVVVK |  |  |  |  |  |  |  | Kd [3]: 1.72 nM; Kd [4]: 1.72 nM; koff [5]: 0.000238 s⁻¹; kon [5]: 138000 M⁻¹ s⁻¹ |
| 65D3 wild-type recombinant IgG (VH + VL) (antibody, V domains shown) VH: QSLEESGGRLVTPGGSLTLTCTVSGFSLSTHDISWVRQAPGKGLEWIGVIARRGSTYYASWAKGRFTISKTSTTVDLKITSPTIEDTATYFCAREEFDFWGQGTLVTVSS VL: AVLTQTASPVSAAVGGTVTISCQSSQSVYNNKELSWFQQKPGQPPKLLISYASTLASGVPSRFKGSGSGTQFTLTISDLECDDAATYYCLGGYASTIDMWAFGGGTEVVVK |  |  |  |  |  |  |  | Kd [6]: 0.755 nM; koff [6]: 0.00017 s⁻¹; kon [6]: 225000 M⁻¹ s⁻¹ |
| Antibody 6D10-1 (antibody, V domains shown) VH: QSVEESGGRLVTPGTPLTLTCTVSGFSLSDVTMSWVRQAPGKGLEWIGIIGRRGRIWYANWAKGRFTISKTSPTVDLKIISPTSDDTATYFCARGAVSSDWNMYGMDLWGPGTLVTVSS VL: QVLTQTPSSVSAPVGGTVTINCQSSQSVYNNENLAWYQQKLGQPPKLLIYGASTLASGVSSRFEGSGSGTQFALTISGVQCDDAATYYCQGEFDCSSADCFAFGGGTEVVVK |  |  |  |  |  |  | 2 |  |
| Antibody 55H8-1 (antibody, V domains shown) VH: QSMEESGGRLVTPGTPLTLTCTVSGFSLSDHAMSWVRQAPGKGLEWIGIVGRRGRTYYASWAKGRFTISKTSTTVDLKITSPTIEDTATYFCARGYVSSDWNIYGMDLWGPGTLVTVSS VL: QVLTQTPSPVSAAVGGTVTINCQASQSVYNNKNLAWYQQKPGQPPKLLIYEASTLASGVSSRFKGSGSGTQFTLTISGVQCDDAATYYCQGEFDCSSADCFAFGGGTEVVVK |  |  |  |  |  |  | 4 |  |
| Antibody 5B7-1 (antibody, V domains shown) VH: QSVEESGGRLVTPGTPLTLTCTVSGFSLSDVTISWVRQAPGKGLKWTGIIGRRGRIRYADWAKGRFTISKTSTTVDLKITSPTTDDTATYFCARAYVSSDWNIYGMDLWGPGTLVTVSS VL: QVLTQTASPVSAPVGGTVTINCQASQSVYNNKNLAWYQQKLGQPPKLLIYEASKLASGVSSRFEGSGSGTQFALTISGVQCDDAATYYCQGEFDCSSADCFVFGGGTEVVVK |  |  |  |  |  |  | 3 |  |
| Antibody 10G3-1 (antibody, V domains shown) VH: QSVEESGGRLVTPGTPLTLTCTASGFSLSDDAMSWVRQAPGKGLEWIGIIGRRGKTWYANWAKGRFTISKTSTTVDLKITSPTTEDTATYFCARGYVSSDWNIYGMDLWGPGTLVTVSA VL: QVLTQTPSPVSAAVGGTVTINCQASQSVYNNKNLAWYQQKSGQPPKLLIYEASKLASGVPSRFKGSGSGTQFTLTISGVQCDDAATYYCQGEFSCSSADCFTFGGGTEVVVK |  |  |  |  |  |  | 5 |  |
| Antibody 67G8-2 (antibody, V domains shown) VH: QSVEESGGRLVTPGTPLTLTCTVSGFSLGNYDGHWVRQTPEKGLEWIGVIATIGDTYYASWAKGRFSISKTSATVELRITSPTTEDTATYFCVRGDSRTSNEIFNLWGQGTLVTVSS VL: AVLTQTPSPVSAAVGGTLTINCQSTRSVHNNICLSWYQQKPGQPPKLLIYSASTLASGVPSRFKGSGSGTQFTLAINDVQCGDAATYYCAGCFPSKSDMYGFGGGTEVVVK | 3.1 OD450 | 2.33 OD450 | 1.31 OD450 | 0.616 OD450 | 3.22 OD450 | > 2430 dilution 1:x |  | OD450 at 1.95 ng/ml (1:512,000) [8]: 0.876 OD450; OD450 at 3.90 ng/ml (1:256,000) [8]: 1.21 OD450; OD450 at 7.81 ng/ml (1:128,000) [8]: 1.66 OD450; OD450 at 15.62 ng/ml (1:64,000) [8]: 2.14 OD450; OD450 at 31.25 ng/ml (1:32,000) [8]: 2.45 OD450; OD450 at 62.50 ng/ml (1:16,000) [8]: 2.61 OD450; OD450 at 125.00 ng/ml (1:8,000) [8]: 2.76 OD450; OD450 at 250.00 ng/ml (1:4,000) [8]: 2.8 OD450; OD450 at 500.00 ng/ml (1:2,000) [8]: 2.83 OD450; OD450 at 1,000.00 ng/ml (1:1,000) [8]: 2.85 OD450; Titer [8]: > 512000 dilution 1:x; Kd [9]: 0.101 nM; koff [9]: 3.02e-05 s⁻¹; kon [9]: 299000 M⁻¹ s⁻¹ |
| Antibody 135A6-1 (antibody, V domains shown) VH: QSVEESGGRLVTPGTPLTLTCTVSGFSLGNYDISWVRQAPGKGLEWIGVIATVGDTYYASWAKGRFTISKTSATVDLKITSPTTEDTATYFCVRGDSPSTNEIFGLWGQGTLVTVSS VL: AVLTQTPSPVSAAVGGTLTINCQSSRTVYNNICLSWYQQKLGQPPKLLIYGASTLTSGVPSRFRGSGSGTQFTLTINDVQCGDAATYYCAGCFPSTSDMYGFGGGTEVVVK | 3.46 OD450 | 3.22 OD450 | 2.68 OD450 | 1.69 OD450 | 3.27 OD450 | > 2430 dilution 1:x |  |  |
| Antibody 3E9-1 (antibody, V domains shown) VH: QSLEESGGRLVTPGGSLTLTCTVSGIDLSSNAMGWVRQAPGEGLEWIGSIYASGNTYYASWAKGRFAISKTSTTVDLKMTSLTAADTATYFCARLFNIWGPGTLVTVSS VL: ADIVLTQTPASVSSVVGGTVTINCQASQSVFDNKNLSWFQQKPGQPPKQLIYGASTLDSGVPSRFKGSGSGTQFTLTISDMQCDDAATYYCGGRDSGNIYDFGGGTEVVVK |  |  |  |  |  |  | 7 |  |
| Antibody 4G6-1 (antibody, V domains shown) VH: QSLEESGGRLVTPGTPLTLTCTVSGIDLSSNAMGWVRQAPGEGLQWIGSIYSSGNTYYASWARGRFAISRTSTTVDLKMTSLTAADTATYFCARLFNIWGPGTLVTVSS VL: ADIVVTQTPASVSADVGGTVTINCQASQSVYDNKNLAWFQQKPGQPPKQLIYGASTVASGVPSRFKGSGSGTQFTLTISDVQCDDAATYYCGGRDNDNIYDFGGGTEVVVK |  |  |  |  |  |  | 10 |  |
| Antibody 21F10-1 (antibody, V domains shown) VH: QSVEESGGRLVTPGTPLTLTCTVSGIDLSSNAVGWVRQAPGEGLEWIGSIYSSGNSYYASWAKGRFAISRTSTTVDLKMTRLTAADTATYFCARLFNIWGPGTLVTVS VL: ADIVLTQTPASVSSVVGGTVAINCQASQSVYDNKNLSWFQQKPGQTPKQLIYGASTLASGVPSRFKGSGSGTQFTLTISGVQCDDAATYYCGGRDDDNIYDFGGGTEVVVK |  |  |  |  |  |  | 11 |  |
| Antibody 76H12-1 (antibody, V domains shown) VH: QELKESGGRLVTPGGSLTLSCTASGIDLSGSAMGWVRQAPGQGLEWIGSIYVSGNTYYASWAKGRFAISRTSTTVDLKMTSLTAADTATYFCARLLNIWGPGTLVTVSS VL: ADIVLTQTPSPVSIAVGGTVTINCQASQSVYDNKNLAWFQQKPGQPPKQLIYGASTLASGVPSRFKGSGSGTQFTLTISGMQCDDAATYYCGGRDSDNIYDFGGGTEVVVK |  |  |  |  |  |  | 8 |  |
| Antibody 101G10-2 (antibody, V domains shown) VH: QSVEESGGRLVTPGTPLTLTCTVSGFSLSSYDMTWVRQAPGKGLEYIGVISYGGSAYYASWAKGRFTISKTSTTVDLKITSPTTEDTATYFCARGDSDGSSELFNLWGQGTLVTVSS VL: AVLTQTPSPVSAPVGGTVSINCQSSKSVYNNNCLSWYQQKPGQPPNLLIYGASTLASGVPSRFKGSGSGTQFTLTINDVQCDDAATYYCAGCFASTNDMYGFGGGSEVVVK | 3.22 OD450 | 3.21 OD450 | 3.1 OD450 | 2.41 OD450 | 3.23 OD450 | > 2430 dilution 1:x |  |  |
| Antibody 125D9-1 (antibody, V domains shown) VH: QPVEESGGRLVTPGTPLTLTCTVSGFSLSSYDMTWVRQAPGKGLEYIGVVAYGGATYYASWAKGRFTISKTSTTVDLKITSPTTEDTATYFCARGDSDGSSELFNLWGQGTLVTVSS VL: AVLTQTPSPVSAAVGGTVTINCQSSKSVYNNNCLSWYQQKQGQPPKLLIYQASTPASGVPSRFKGSGSGTQFTLTINDVQCDDAATYYCAGCFASTSDMYGFGGGTGVVVK | 3.37 OD450 | 3.31 OD450 | 3.27 OD450 | 2.85 OD450 | 3.2 OD450 | > 2430 dilution 1:x |  |  |
